This is an account of results in patent US20160136295A1, “BIOMARKERS FOR TREATMENT WITH ANTI-TUBULIN CHEMOTHERAPEUTIC COMPOUNDS” (GENENTECH, INC., priority 2012, published 2016).

Holding throughout (assay type): biochemical, human
Assay [1] deals with Mcl-1 S159/T163. Kind of assay: In vitro kinase reactions: percent phosphorylation of full-length recombinant Mcl-1 at S159+T163. Particulars: for Percent phosphorylation S159/T163, AVE: average; for Percent phosphorylation S159/T163, INJ1: sample injection 1; for Percent phosphorylation S159/T163, INJ2: sample injection 2. On the procedure:
(§1) To determine the suitability of residues in Mcl-1 as kinase substrates, 10 μM of Mcl-1 was incubated with selected kinase at enzyme concentrations between 25 and 100 nM. For these reactions the Mcl-1 was dialyzed into 20 mM Phosphate, 50 mM Tris pH 7.5 150 mM NaCl, 5 mM DTT and 0.5% CHAPS. The protein solution was further supplemented with MgCl2 to 10 mM and ATP to 1 mM prior to addition of kinase. Purified recombinant kinases were purchased from Invitrogen Co. (Carlsbad, Calif.).
(§2) 10 μl of each of the Mcl-1 kinase reactions (100 pmol) were loaded onto a 4-12% Bis-Tris gel for separation by SDS-PAGE after reduction. Mcl-1 bands were excised from the gel, dehydrated (50% acetonitrile in 50 mM ammonium bicarbonate then 100% acetonitrile washes), and incubated with 0.2 μg trypsin overnight at 37° C.
(§3) Samples were injected in duplicate via autosampler onto a nanoAcquity® UPLC (Waters, Milford, Mass.) and analyzed on-line via nanospray ionization into an LTQ-Orbitrap® mass spectrometer at a concentration of 300 fmol synthetic peptide mix per injection. Areas were integrated for the isotopic and kinase phosphorylated peptides, and compared to their non-phosphorylated peptide counterparts to obtain percent phosphorylation values.

The subject of assay [2] is Mcl-1 T92. Kind of assay: In vitro kinase reactions: percent phosphorylation of full-length recombinant Mcl-1 at T92. The settings on record: single kinase reactions, peak areas of 0 and 1P, triple charged state. On the procedure: as §1, §2, §3
Assay [3] has as its system Mcl-1 S121. Kind of assay: In vitro kinase reactions: percent phosphorylation of full-length recombinant Mcl-1 at S121. Particulars: for Percent phosphorylation S121, AVE: average of INJ1 and INJ2; for Percent phosphorylation S121, INJ1: sample injection 1; for Percent phosphorylation S121, INJ2: sample injection 2. How it is done:
as §1, §2, §3

For assay [4], the system named is Mcl-1 T163. Kind of assay: In vitro kinase reactions: percent phosphorylation of full-length recombinant Mcl-1 at T163. Particulars: single kinase reactions. How it is done:
as §1, §2, §3

Setting [5] is: % phos on S159+T163, CDK1 + kinase panel reactions.
Where [6] appears, read: % phos on S159+T163, single kinase reactions.

B1: MAPK8: purified recombinant kinase purchased from Invitrogen (protein, UniProt P45983 1-427, looked up)
Mitogen-activated protein …: MSRSKRDNNFYSVEIGDSTFTVLKRYQNLKPIGSGAQGIVCAAYDAILERNVAIKKLSRPFQNQTHAKRAYRELVLMKCVNHKNIIGLLNVFTPQKSLEEFQDVYIVMELMDANLCQVIQMELDHERMSYLLYQMLCGIKHLHSAGIIHRDLKPSNIVVKSDCTLKILDFGLARTAGTSFMMTPYVVTRYYRAPEVILGMGYKENVDLWSVGCIMGEMVCHKILFPGRDYIDQWNKVIEQLGTPCPEFMKKLQPTVRTYVENRPKYAGYSFEKLFPDVLFPADSEHNKLKASQARDLLSKMLVIDASKRISVDEALQHPYINVWYDPSEAEAPPPKIPDKQLDEREHTIEEWKELIYKEVMDLEERTKNGVIRGQPSPLGAAVINGSQHPSSSSSVNDVSSMSTDPTLASDTDSSLEAAAGPLGCCR
In the case of B1, in assay [1] (setting [5]), the “Percent phosphorylation S159/T163, AVE” value is 9.45%; the “Percent phosphorylation S159/T163, INJ1” value amounted to 10.13%; the “Percent phosphorylation S159/T163, INJ2” value came out at 8.76%. In addition, in assay [1] (setting [6]), the “Percent phosphorylation S159/T163, AVE” value is 16.98%; the “Percent phosphorylation S159/T163, INJ1” value is given as 15.54%; the “Percent phosphorylation S159/T163, INJ2” value stood at 18.42%. For the same molecule, the “Percent phosphorylation T92, AVE” value in assay [2] (average) is listed as 6.04%. For the same molecule, in assay [2] (sample injection 1), the “Percent phosphorylation T92, INJ1” value stood at 5.99%. The “Percent phosphorylation T92, INJ2” value in assay [2] (sample injection 2) is 6.08%. In assay [3] (CDK1 + kinase panel reactions), the “Percent phosphorylation S121, AVE” value amounted to 70.06%; the “Percent phosphorylation S121, INJ1” value is reported as 68.97%; the “Percent phosphorylation S121, INJ2” value is 71.14%. In addition, in assay [3] (single kinase reactions), the “Percent phosphorylation S121, AVE” value was determined as 21.56%; the “Percent phosphorylation S121, INJ1” value amounted to 17.66%; the “Percent phosphorylation S121, INJ2” value is 25.46%. In addition, the “Percent phosphorylation T163, AVE” value in assay [4] (average of INJ1 and INJ2) was found to be 56.77%. Also, in assay [4] (sample injection 1), the “Percent phosphorylation T163, INJ1” value is 60.42%. Besides, the “Percent phosphorylation T163, INJ2” value in assay [4] (sample injection 2) is listed as 53.11%.
